In the DeepSol protein solubility set:

Experiment: soluble on expression in E. coli; label from the status in PepcDB or PDB records

Row | Sequence | soluble on expression in E. coli
1 | MSKKEETIFFRIEKENRPESSKKEEDENSTEEMTTLNHASVTLDHSAFAIADKDGFKMYQLNPLHFRMYKDYVIKVGPVRLVKQDGNSRRIIYVSALAGGRFAQNNLMIFDVARNEEYFEITTPSRYGPITNIHVSPNRLVALNPNRMFVWTYPDDIKQIRSEDIRSNPKGISAMSYDPTTAACYLAYPGFKTGSVQIMHLNALTARESKSPIVIEAHLTDIAQVALNCQGTLVATGSTKGTVIRVFDARTKGPLYELRRGTVQAHLQCMAFSPCSSYLAVASDKGTLHMFGIRDAEPQKKKNVLERSRGSSSIVKIQLDRPVMAIGFGKIPETPKNLQSIIAICADATYWRHEFYKDNTGNFTSHFGSYDELIEVANDSSFFRTPVE | not soluble
2 | MKFRGNFVCQPRAGPAESRPTRPFTPRPSATGSLFMSNQHFVSPDLIRQGFSRAMSDMYREEVPLYGALMELVAEVNAQVLERQPALARHLQSSGELQRLDLERHGAIRVGSAAELATLARLFAVMGMQPVGYYDLTPAGVPVHSTAFRAVHEAALQVSPFRVFTSLLRLELIDNPELRSFAEQVLARRQIFTPQVLELIQQAEAAGGLDAEDAERFIRQALETFRWHHHATVTAAQYASLSAQHRLIADVVAFKGPHINHLTPRTLDIDEVQRLMPARGITPKAVIEGPPRRECPILLRQTSFKALEESVAFTDQAQSQGSHSARFGEIEQRGAALTPKGRELYDRLLNAARDALGDFPNEANAQRYNQLMQEHFREFPDSHPAMREQGLAYFRYFVSETGLAARNQPQRPTTLAALLAAGHLSAEPLVYEDFLPVSAAGIFQSNLGDDSQSHYAGQSNRQAFEAALGRPTLDELQLYAQTQQRSLEHCAATLGLPALLEHHHHHH | not soluble
3 | MTIEGGEQEVNVSSGGAWQSSIHCDWMTLSPSSGGIGITKVRIKVKKNTSGLPRNGRIAIISGKEEKGITVMQSSIEGEEDYLRLLNLTIDGVTTAVDYVNNSYYLPIDMDAVQPAKVKVEFGGIGVDFIKIGDKKIKSGENIALSLNPGQNIEMEAGNNTIDKIRSCRLIVTGVPVIEISAPEGIEDENKRPCDIVLTDPKRRTNNSVLRFESYAGIEFRGAGALRYAKKSFSFKLKNRQTNENQDAKLLGLREDQSWILDAMWLDCSKMRNRVCFDLWNDFNTLYYSNTEPEAVNATHGYPVEMILDGAYHGLYILSDRIDRKQLKMKKKGGYLYKGKEWTDECKLQGINTPYSNSKQAWQGFESDYPDEVGEIEFKYLSDLIQFFAAASKEEFAAQYEERLDVSSLIDYFIFINLLSAYDNTGRNVFWGIYNVNLTLLPKFIIQPWDLDGTLGRTWDAIKLDPEKGLGFDNGLILRNDAGSKYFRPFERIMNENPNNIKRRIYERLMAVKDNVLSPANLASKVDYYKRQIVESGALERDRQRWTGYSMYGYANPEEEAEYIKSWYIARLKYLETIFNNF | not soluble
4 | MGSDKIHHHHHHMDYDYIIVGAGAAGLSLAYHLGQSALADQTILIIDPNHTRQNDRTWCFWEVGDGPFEAVVSRRWEHLWLYDKHWSARMAIAPYRYKLIQGIDFYQFVDHWLAQRPNITRLQGSVDRLVELPEGVAAVVGGRQYTARYAFNSVYRPVPTPPGYHTWLQHFKGWVIKTPQPVFDAEAATFMDFRIPQAGDVRFGYVLPFDTCTALVEYTIFSPQLVSQTEYEIGLQRYIAEQLGIDRYEITHVEYGVIPMSDVPLPLRPSPHVLNIGTAGGMSKPSTGYTFQRIQRQTRQIVASLTKEGHPFYRQPLFNRHALMDSILLNVLDAGRTPGHRFFANLFRHNPIQRVLRFLDEETTIAEDIALMSTVEMMPFAIAALAVFWGRMSSLGRREWEMG | not soluble
5 | MAHHHHHHMGQSNGAALAKDTIASEQFLKYQEARHRIVHRAFVKCVVPSSKGKDDGYDLTPEERVCVEEFAILYAGFAKKEFLHFSSLYEQYQRDQYEKMRLEVMQQQARKDIQH | not soluble
6 | MRTSDSHLPLSNLARSDSIEFKDAVINEKWVHSANRRKGHLTPKAPEKKSGWFGGQKSEEELLMERVEQHELEELQTFIAQKLFRVDGIICDEETRILLVEKLMNAKEYPTINHDELAHRYGSSMAGWLRDRLVPSMSDCSSVLQRAAAEFYQNKMSDPLCNWGQLNPEHVSMVAARIAKFSEEMSSKVKWSLLVEPGKFSCHLTEFVQEFNRLDRMFVSNELSDEESLQTAFNANYLTKARSKMVPCAEFSRVKLNDGLGRLDDRNELRNGMFSDEHEFLQEEGYTAKSTYGTTDFIHANYVKGGPLLNTFICAQAPLKNTQEDFWRMVFQEKCQFIVMLNSAVDSSTLGPLDSANRNHCPYYWPRAENESLRFGSFHITCMKVDSKADPLFTITKLKVQKVGGNLLDAEFDEELFLEHWQWDWQYLGDVHWPFRVLRKARQLSTPTIVQCIDGCSKSGTLVSIETALMHFIRGSPITKSLILQSCVFVRLQRRLSVSSVLLYLFIYRVILRWIEPYVNKWYHRAALGLRFKSIGFIQKYNAMIQEFSRITPAY | not soluble
7 | GSHMASMTGGQQMGRGSEFRSMTAIEDILQITTDPSDTRGYSLLKSEEVPQGSTLGVDFIDTLLLYQLTENEKLDKPFEYLNDCFRRNQQQKRITKNKPNAESLHSTFQEIDRLVIGYGVVALQIENFCMNGAFINYITGIVSNVNSYTDFLSQIIQRAILEGTALDLLNAVFPTLLEYCNKHVSHFDLNESVIYNNVLTIFELFVTFKPIAEIFTKIDGFFADYSCKPQDFERKTILGPILSLSPIEAAVAIRNYGDNLLRSKQQTAMIHESLQAEHKVVIDRLFFIVDKLVRGSLNSRTDMISYFAHIANKNHLRRADHPPFKELSSNGFMSNITLLLVRFSQPFLDISYKKIDKIDANYFNNPSLFIDLSGETRLNSDFKEADAFYDKNRKTADSKPNFISDCFFLTLTYLHYGLGGTLSFEEKMGSEIKALKEEIEKVKKIAANHDVFARFITAQLSKMEKALKTTESLRFALQGFFAHRSLQLEVFDFICGASTFLIRVVDPEHEFPFKQIKLPLIPDQIGVENVDNADFLRAHAPVPFKYYPEFVVEGPVNYSLYISKYQTSPIFRNPRLGSFVEFTTMVLRCPELVSNPHLKGKLVQLLSVGAMPLTDNSPGFMMDIFEHDELVNKNLLYALLDFYVIVEKTGSSSQFYDKFNSRYSISIILEELYYKIPSYKNQLIWQSQNNADFFVRFVARMLNDLTFLLDEGLSNLAEVHNIQNELDNRARGAPPTREEEDKELQTRLASASRQAKSSCGLADKSMKLFEIYSKDIPAAFVTPEIVYRLASMLNYNLESLVGPKCGELKVKDPQSYSFNPKDLLKALTTVYINLSEQSEFISAVAKDERSFNRNLFVRAVDILGRKTGLASPEFIEKLLNFANKAEEQRKADEEEDLEYGDVPDEFLDPLMYTIMKDPVILPASKMNIDRSTIKAHLLSDSTDPFNRMPLKLEDVTPNEELRQKILCFKKQKKEEAKHKASE | soluble
8 | MGSDKIHHHHHHMMKALILAGGSGERFWPLSTPETPKQFLKLFGNKSLMRWTFERVLEEMDPKDVIVVTHKDYVERTKKELPELPDENIIAEPMKKNTAPACFIGTKLADDDEPVLVLPADHRIPDTKKFWKTVKKALDALEKYDGLFTFGIVPTRPETGYGYIEIGEELEEGVHKVAQFREKPDLETAKKFVESGRFLWNSGMFLWKAREFIEEVKVCEPSIYENLKDVDPRNFEELKKAYEKVPSISVDYAVMEKSKKVRVVKADFEWSDVGNWSSVREIEGYTEESDEVILVDSDRVFVKTHNKPIAVVGLSDVIVIDTPNGILICKEEYAQKVREVVKKLFRTS | not soluble
9 | MGSDKIHHHHHHMNSGIYSALTGNVAAMKRLDVLSNNLANVNTPGFKKDRMTFESMLQTVGAQPRPGGGTDAPVFAETTFFTDYSPGSVKQTGNPFDLAIDGDGFFAVTTADGQRAYTRQGNFRLDSTGRLVTADGAQVAGGVVIAGGKVDINGKGEVLVDGSQVGRLEVVDFPKPYALQKLGGGLFVPADPQATPNPVTGEKVMQGAIEESNVNTVQEMVQLIETNRYFEMCSKVVKAYDDLTGKAANEIGKI | not soluble
10 | MGSDKIHHHHHHMIPWVISPYSFDGSVVRFEKLALLLKRKGLKSVILADRNFHAAVKFNTIMRKHGLIPVHGLWKDGRIFVARNREEFDSLVRYYNGETHEIEDIPVFQESELTPVRYLDASEKKASIFMRKIFGLDEDVQGFPEKCEDVADILNAEAYDLRVNHRFPTPPKNWNELLIKKAEPLGEEYISRLKRELEVIKRKGFTPYIYTVEKVVEIAKKMGIKVGPGRGSAVGSLVAYLCGITEVDPIKYDLLFERFLNEERQEPPDIDVDVEDRRRKDLIKELSKSFQVYQVSTFGNLTEKSLKNLINSVLPDASLEEKNEIYKTVYGLPHHPSVHAAGVVISENPLPLPTRTEEDIPITDYDMYDLQEIGVVKIDILGLKTLSFIKDFKKEIFDYSDEKTYHLISKGKTLGVFQLEGLQARKLCRRISPRNMDELSILLALNRPGPLRSGLDVMFSNSKNVPAFFRKMFPETRGVLIYQEQIMRLAMFAGLSGTEADILRRAIAKKEREKMEPLLEKMKKGLLEKGMENAEQILEILLNFSSYAFNKSHSVAYAHITYQTAYLKAHHLEEFFKLYFAYNSSDAGKIFLAVQELRNEGYRVHPPDINISGKDLVFHGKDVYLPLTVVKGVGVTLVEQIEKIRPVSSVRELQERVTGVPRNVVESLITAGAFDKLYENRKLALEELNKRVEKDILEIRSLFGEKVEQESSNIKIGDITELEEKSMGFPLTPVHEVPTGLFARIDDVFTYGRILPVLVKRVSRNIVTDGLSVCRVRTDVPDGVHLVLLSPLQKIIKIWPFNENTRFVYRVDFTATLEKAGQNEITEVLKNGAVVRYEGYRPLTDEYRYRVVPR | not soluble
11 | EGDPENGEKLQITIRRGKDGFGFTICCDSPVRVQAVDSGGPAERAGLQQLDTVLQLNERPVEHWKCVELAHEIRSCPSEIILLVWRV | soluble
12 | MGSDKIHHHHHHMTGLLSKHDFRVALQEAIAGKASAKAAFSQAWMDGTLQRHHFARWAENHYHYVGPFADYLGYIYNNARDEQDGVKDLLLQSMYEFRHLQEGEAMVSHTDLLIRFAQACGTTRERVESPQACNPITRGMQAWCYATAIRESPVVATAALLVGLASQIPQIYARQIVPLRDPRVYGFSEHEVAFFALRITSDGAHAERGYRIVLDGATTPALQQRCLQFVRWGAEMRYAYAQAIYDQYVAPDLGARRVD | not soluble
13 | MGSDKIHHHHHHMEQLRAELSHLLGEKLSRIECVNEKADTALWALYDSQGNPMPLMARSFSTPGKARQLAWKTTMLARSGTVRMPTIYGVMTHEEHPGPDVLLLERMRGVSVEAPARTPERWEQLKDQIVEALLAWHRQDSRGCVGAVDNTQENFWPSWYRQHVEVLWTTLNQFNNTGLTMQDKRILFRTRECLPALFEGFNDNCVLIHGNFCLRSMLKDSRSDQLLAMVGPGLMLWAPREYELFRLMDNSLAEDLLWSYLQRAPVAESFIWRRWLYVLWDEVAQLVNTGRFSRRNFDLASKSLLPWLA | not soluble
14 | MTQCYAEITGWGKCLPPATLSNHDLSTFLDTSDEWIQSRTGIEQRRISHVNTSDLATVAAQHAIACAGVSVEEIDLIIVATCSPDSLIPNIASRVQQNLGIPSAAAFDLNAACTGFLYGLETATRLMQASHYRHALVIGAERLSFYLDWTKRDTAVLFGDGAGAVVLSKTEQKVGLQDAQIGCDAQGRDILAVPKFGTAMDRFDADNGYWAFDFVGKEIFKRAVRGMGAAAQQVLARSGLSTEEIDVVIPHQANIRIIQTLCDLAGIAQDKAFVNIHRYGNTSAATVPIALCEALEQGKIKPHDDLLVAAFGAGLTWGAGHIRWGERITPLGKSDAQLPSCDHTALDLLSKAIEHCKRHQSE | not soluble
15 | MAHHHHHHMEQQGDSEAKEHGELTRNGITDNAYDNSVGAFNRTILDRYAHWMTQLDQGACGLRIWKAEELWKRYERVIRVGRGSFGSVFIVYDTERKAYLTVKCMELLGKPGPALRSLSQPTLREVILLSQIDHPNVVRLIDYYLTSDGMLHMCMPIVSHDLVSLIRIWKMRGPRGESSLGRMPLPTVKCVFRQLLRGLEYLHRRNIIHRDLKPSNVMLDDNGVVKIVDFGWARFVPRRWQGRLTGPPCVVTYRPPEILLGGQCSFKYDSSIDIWSAGCILYEMLTGGKAFSNARNEQQALAAITDMLGSPSSRSEVYYGAAGGSRLRPSKRQPRNFEERCRMVNMSNESIDFLGEMLQLEPNSRKSASQLLGHSWFSTSPLPCEPEEVSLPGSNTYRLLERKRTR | not soluble
